Experimental findings from PMC8405949 are described below.

Data set [1] deals with DNA polymerase (pol) β, human wild-type full-length (1–335 aa) (human) (UniProt P06746).
The target in data set [2] is DNA ligase IIIα, human wild-type full-length (1–922 aa) (human).
The target in data set [3] is Aprataxin (APTX), human wild-type full-length (human) (UniProt Q7Z2E3). Put plainly: SPR; Biacore X-100, 25 °C; polβ, ligase IIIα or APTX amine-coupled on CM5; XRCC1 (wild-type or mutants) as analyte, 30 μl/min; 20 mM HEPES pH 7.4, 150 mM NaCl, 3 mM EDTA, 0.005% Surfactant P20; 1:1 (Langmuir) model.
Sequence of Aprataxin (APTX), human wild-type full-length (human) (Q7Z2E3 whole entry, the tested form may be a part): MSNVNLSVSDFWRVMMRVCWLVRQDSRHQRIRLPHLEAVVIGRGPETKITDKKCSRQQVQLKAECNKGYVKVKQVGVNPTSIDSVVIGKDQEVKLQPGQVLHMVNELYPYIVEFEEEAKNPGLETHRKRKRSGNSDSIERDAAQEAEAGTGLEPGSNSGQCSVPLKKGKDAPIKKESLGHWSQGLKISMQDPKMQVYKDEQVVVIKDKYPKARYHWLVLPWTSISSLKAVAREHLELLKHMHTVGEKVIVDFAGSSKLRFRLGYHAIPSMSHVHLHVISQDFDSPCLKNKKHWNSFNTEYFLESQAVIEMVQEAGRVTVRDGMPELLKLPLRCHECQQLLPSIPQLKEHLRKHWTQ
Data set [4] concerns the target DNA ligase IIIα, human wild-type full-length (1–922 aa) (human). The description is as above.
The target in data set [5] is DNA polymerase (pol) β, human wild-type full-length (1–335 aa) (human) (UniProt P06746). The description is as above.
For data set [6], the system named is DNA ligase IIIalpha (human). Kind of data set: BLI. The conditions noted are these: BLI (Octet QKe): 20 mM HEPES pH 7.4, 200 mM NaCl, 0.5% BSA, 0.05% Tween 20, 20 °C, ternary complexes plus 10 mM MgCl2 and 0.1 mM dGTP or 1 mM ATP.
Data set [7] deals with DNA ligase IIIalpha;XRCC1 wild-type (human;human) (UniProt P18887). Put plainly: BLI. The conditions noted are these: 10 mM Mg2+, 1 mM ATP; 1:1 ligase/XRCC1; koff 2.0e-4; BLI (Octet QKe): 20 mM HEPES pH 7.4, 200 mM NaCl, 0.5% BSA, 0.05% Tween 20, 20 °C; ternary complexes plus 10 mM MgCl2 and 0.1 mM dGTP or 1 mM ATP. In general terms: Biolayer interferometry detects binding as a change in optical thickness at a sensor tip.

The target of data set [8] is XRCC1 R280H R280H (human) (UniProt P18887). Kind of data set: BLI. To be noted: BLI (Octet QKe): 20 mM HEPES pH 7.4, 200 mM NaCl, 0.5% BSA, 0.05% Tween 20, 20 °C; ternary complexes plus 10 mM MgCl2 and 0.1 mM dGTP or 1 mM ATP.
For data set [9], the target named is DNA polymerase beta (human) (UniProt P06746). Kind of data set: BLI. The conditions noted are these: BLI (Octet QKe): 20 mM HEPES pH 7.4, 200 mM NaCl, 0.5% BSA, 0.05% Tween 20, 20 °C; ternary complexes plus 10 mM MgCl2 and 0.1 mM dGTP or 1 mM ATP.
Data set [10] has as its target DNA polymerase beta;XRCC1 wild-type (human;human) (UniProt P06746+P18887). Kind of data set: BLI. The conditions noted are these: BLI (Octet QKe): 20 mM HEPES pH 7.4, 200 mM NaCl, 0.5% BSA, 0.05% Tween 20, 20 °C; ternary complexes plus 10 mM MgCl2 and 0.1 mM dGTP or 1 mM ATP.
For another data set, the target named is XRCC1 wild-type (human) (UniProt P18887). Kind of data set: BLI. The conditions noted are these: BLI (Octet QKe): 20 mM HEPES pH 7.4, 200 mM NaCl, 0.5% BSA, 0.05% Tween 20, 20 °C; ternary complexes plus 10 mM MgCl2 and 0.1 mM dGTP or 1 mM ATP.
The target in data set [11] is DNA polymerase beta (human) (UniProt P06746). Put plainly: BLI. To be noted: BLI (Octet QKe): 20 mM HEPES pH 7.4, 200 mM NaCl, 0.5% BSA, 0.05% Tween 20, 20 °C; ternary complexes plus 10 mM MgCl2 and 0.1 mM dGTP or 1 mM ATP. The source holds these as a separate data set.

“X-ray cross-complementing protein 1 (XRCC1), human wild-type full-length (1–633 aa) (from UniProt P18887 1-633) (natural protein)” came in with an amount of ligation products in the coupled assay (polβ dGTP:C insertion coupled to ligation by ligase IIIα), with against without XRCC1 in data set [1] of 2 fold. The substance also showed an amount of ligation products, nick sealing of nick DNA with 3′-dG:C by ligase IIIα, with against without XRCC1 in [2] of 4 fold. For the same substance, the equilibrium dissociation constant (Kd) in data set [3] amounted to 0.374 µM; in data set [4], 0.0504 µM; in data set [5], 0.0102 µM.

For the substance “XRCC1 R109A mutant (from UniProt P18887 1-633) (natural protein)”, the Kd in data set [5] was found to be 0.17 µM.

In turn, “XRCC1 V86R mutant (from UniProt P18887 1-633) (natural protein)” showed a Kd in [5] of 0.284 µM.

Turning to “XRCC1 cancer-associated variant R399Q (from UniProt P18887 1-633) (natural protein)”, in [5], the equilibrium dissociation constant (Kd) is 0.0058 µM.

For the substance nick DNA with 3'-dG:C, the Kd in data set [6] (10 mM Mg2+, 1 mM ATP, no XRCC1, koff 5.0e-4) was 0.022 µM; in data set [6] (no ATP), 0.005 µM; in data set [7], 0.0065 µM; in [8], 0.14 µM.

For the substance one nucleotide gap DNA, template C, the dissociation constant (Kd) in [9] came out at 0.355 µM; in data set [10], 0.03 µM; in data set [8], 0.153 µM; with XRCC1 wild-type (human), 0.11 µM; in data set [11], 0.0054 µM.

As usually defined, the Kd is the constant that tells how readily two partners part at equilibrium.
